Data on 18 molecules can be found in patent US20220025056A1 (INNATE PHARMA, published 2022).

One assay addresses T1, ILT2 mutant 2 (human, UniProt Q8NHL6 24-650).
T1 construct: transfected in HEK293T cells; also called M2
As to the kind of experiment: flow cytometry, ILT2 point mutants.

In assay [1] the target is T2, human ILT6 (LILRA3) on CHO cells (human, UniProt Q8N6C8 24-434).
T2 construct: also called CHO ILT6 cell line; human ILT-6 polypeptide
As to the kind of experiment: flow cytometry, CHO transfectants. (In general: Flow cytometry measures light scatter and fluorescence of single cells or particles in a stream.)

T2 sequence (Q8N6C8 other isoform, or with tags, fused parts or gaps): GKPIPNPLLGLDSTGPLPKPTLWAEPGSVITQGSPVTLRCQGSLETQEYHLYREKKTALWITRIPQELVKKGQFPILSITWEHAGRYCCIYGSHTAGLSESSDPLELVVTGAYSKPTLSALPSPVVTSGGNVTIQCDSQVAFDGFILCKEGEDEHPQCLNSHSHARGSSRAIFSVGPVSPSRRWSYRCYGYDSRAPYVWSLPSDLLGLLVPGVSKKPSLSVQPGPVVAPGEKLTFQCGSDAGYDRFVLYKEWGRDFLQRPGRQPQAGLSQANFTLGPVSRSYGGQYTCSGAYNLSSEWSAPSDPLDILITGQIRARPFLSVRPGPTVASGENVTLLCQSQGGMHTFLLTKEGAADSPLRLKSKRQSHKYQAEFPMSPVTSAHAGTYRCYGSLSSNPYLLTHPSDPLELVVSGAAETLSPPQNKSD
T1 sequence (Q8NHL6 other isoform, or with tags, fused parts or gaps mutant): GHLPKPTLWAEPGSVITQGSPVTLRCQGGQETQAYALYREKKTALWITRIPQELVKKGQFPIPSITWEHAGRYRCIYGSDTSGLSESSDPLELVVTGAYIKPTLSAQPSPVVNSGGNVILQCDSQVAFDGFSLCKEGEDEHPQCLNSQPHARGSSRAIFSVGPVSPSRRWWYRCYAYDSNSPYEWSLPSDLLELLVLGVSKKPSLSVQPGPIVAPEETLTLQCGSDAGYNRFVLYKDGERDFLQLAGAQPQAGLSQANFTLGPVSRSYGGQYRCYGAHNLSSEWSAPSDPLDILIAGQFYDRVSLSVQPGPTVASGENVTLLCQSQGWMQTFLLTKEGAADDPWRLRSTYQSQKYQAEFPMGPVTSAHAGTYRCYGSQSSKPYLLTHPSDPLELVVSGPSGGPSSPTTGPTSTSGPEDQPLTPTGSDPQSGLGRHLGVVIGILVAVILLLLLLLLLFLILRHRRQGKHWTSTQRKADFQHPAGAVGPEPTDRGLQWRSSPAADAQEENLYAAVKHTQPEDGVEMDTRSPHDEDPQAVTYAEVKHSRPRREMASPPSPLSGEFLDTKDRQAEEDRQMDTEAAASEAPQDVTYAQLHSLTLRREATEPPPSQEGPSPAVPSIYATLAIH

B1: 2A8A (antibody, human IgG1, V domains shown)
VH: QVQLQQSGPELVKPGASVKISCKASGYSFTNFYIHWVRQRPGQGLDWIGWIFPGSGETKFNEKFKVKATLTADTSSSTAYMQLNSLTSEDSAVYFCARSWNYDARWGYWGQGTSVTVSS
VL: QIVLTQSPASLAVSLGQRATISCRASESIDSYGISFLHWYQQKPGQPPKLLIYRASNLESGIPARFSGSGSRPDFTLTINPVEADDVATYYCQQSNEDPFTFGSGTKLEIK
Turning to B1, the binding result (in the assay with ILT2 mutant 2; in assay [1]) was “no binding” throughout.

B2: 4C11B (antibody, human IgG1, V domains shown)
VH: QVQLKESGPELVKPGASVKISCKASGYSFTNYYIHWVKQRPGQGLEWIGWIFPGSGETNYSEKFKGEAILTADTSSNTAYMQLSSLTSEDSAVYFCARSWNYDARWGYWGQGTTLTVSS
VL: QIVLSQSPVSLAVSPGQRATISCRASESIDSYGISFMHWYKQKPGQPPKLLIYRASNLESGIPARFSGSGSRTDFTLTINPVEADDVATYYCQQSNEDPFTFGSGTKLEIK
Consider B2, for which the binding result (with ILT2 mutant 2; in assay [1]) was “no binding” each time.

B3: 2E2C (antibody, human IgG1, V domains shown)
VH: EFQLQQSGPELVKPGASVKISCKASGYSFTNYYMQWVKQRPGQGLEWIGWIFPGSGESNYNEKFKGKATLSADTSSTTAYMQLSSLTSEDSAVYFCARTWNYDARWGYWGQGTTLTVSS
VL: DIVMTQSPASLAVSLGQRATISCIPSESIDSYGISFMHWYQQKPGQPPKLLIYRASNLESGIPARFSGSGSRTDFTLTINPVEADDVATYYCQQSNEDPFTFGSGTKLEIK
Turning to B3, the binding result (with ILT2 mutant 2; in assay [1]) was “no binding” throughout.

B4: 2D8 (antibody, human IgG1, V domains shown)
VH: EVQLQQSGPELVKPGASVKISCKSSGYSFTNFYIHWVKQRPGQGLDWIGWIFPGSGETNFNEKFKVKAALTADTSSNTAYMQLSSLTSEDSAVYFCARSWNYDARWGYWGQGTTVTVSS
VL: DAVMTQTPASLAVSLGQRATISCRASESVDSYGISFMHWYQQKPGQPPKLLIYRASILESGIPARFSGSGSRPDFSLTINPVEADDVATYYCQQSNEDPFTFGSGTKLEIK
On to B4, for which the binding result (in the assay with ILT2 mutant 2; in assay [1]) was “no binding” throughout.

B5: 3E5 (antibody, human IgG1, V domains shown)
VH: DVQLQESGPELVKPGASVKISCKSSGYSFTNFYIHWVKQRPGQGLDWIGWIFPGTGETNFNEKFKVKAALTADTSSSTVYMQLSTLTSEDSAVYFCARSWNYDARWGYWGQGTSITVSS
VL: ENVLTQSPASLAVSLGQRATISCRASESIDSFGISFMHWYQQKPGQPPKLLIYRASNLESGIPARFSGSGSGPDFSLTIDPVEADDVATYYCQQSNEAPFTFGSGTKLEIK
For the molecule B5, the binding result (with ILT2 mutant 2; in assay [1]) was “no binding” in each case.

B6: 2E11 (antibody, human IgG1, V domains shown)
VH: QVQLKESGPELVKPGASVKISCKTSGYSFTNYYIHWVKQRPGQGLEWIGWIFPGSGDTNYNEKFKGKATLTADTSSNTASMHLSSLTSEDSAVYFCARTWNYDARWGYWGQGTTLTVSS
VL: DIVMTQSPASLAVSLGQRATISCRVSESIDSYGISFMHWYQQKSGQPPKVLIYRASTLESGIPARFSGSGSRTDFTLTINPVEADDVATYYCQQSNEDPFTFGSGTKLEIK
As to B6, the binding result (with ILT2 mutant 2; in assay [1]) was “no binding” in each case.

B7: 4H3 (antibody, human IgG1, V domains shown)
VH: QVQLKESGPELVKPGASVKISCKTSGYIFTNYYIHWVKQRPGQGLEWIGWIFPGSGDTNYNEKFKGKATLTADTSSSTASMQLSSLTSEDSAVYFCARTWNYDARWGYWGQGTTVTVSS
VL: DILLTQSPASLAVSLGQRATISCRVSESIDSYGISFMHWYQQKSGQPPKVLIYRASTLESGIPARFSGSGSRTDFTLTINPVEADDVATYYCQQSNEDPFTFGSGTKLEIK
Turning to B7, the binding result (with ILT2 mutant 2; in assay [1]) was “no binding” in each case.

B8: 6C6 (antibody, human IgG1, V domains shown)
VH: EVQLQQSGPELVKPGASVKISCKASGYSFTNFYIHWVKQRPGQGLDWIGWIFPGSGETNYNERFKGKATLTSDTSSSTAYMQLSSLTSEDSAVYFCARSWNYDARWGYWGQGTTLTVSS
VL: QIVLTQTPASLAVSLGQRATISCRASESIDSYGISFMHWYQQKPGQPPKLLIYRASNLESGIPARFSGSGSRPDFTLTINPVEADDVATYYCQQSNEDPFTFGSGTKLEIK
On to B8, for which the binding result (with ILT2 mutant 2; in assay [1]) was “no binding” throughout.

B9: 2H12 (antibody, human IgG1, V domains shown)
VH: EVKLQQSGPDLVKPGASVKISCKASGYSFTNFYIHWVKQRPGQGLEWIGWIFPGNGETNYSEKFKGKATLTADTSSSTAYMQFNSLTYEDSAVYFCARTWNYDARWGYWGQGTTLTVSS
VL: DILLTQSPASLAVSLGQRATISCRASDGIDSYGISFMHWYQQKPGQPPTLLIYRASTLESGIPARFSGSGSRTDFTLTINPVEADDVATYYCQQTNEAPFTFGSGTKLELK
On to B9, for which the binding result (with ILT2 mutant 2; in assay [1]) was “no binding” in each case.

B10: 1A10D (antibody, human IgG1, V domains shown)
VH: QVQLKQSGPELVKPGASVKISCKASGYSFTNYYIHWVKQRPGQGLEWIGWIFPGSGETNFNEKFKGKATLTADTSSSTAYMQFSSLTSEDSAVYFCARTWNYDARWGYWGQGTTVTVSS
VL: EIVLTQSPASLAVSLGQRATISCRASESIDSYGISFMHWYQQKPGQPPKLLIYRASNLESGIPARFSGSGSRTDFTLTINPVEADDVATYYCQQSNEDPFTFGSGTKLEIK
On to B10, for which the binding result (with ILT2 mutant 2; in assay [1]) was “no binding” each time.

B11: 4E3B (antibody, human IgG1, V domains shown)
VH: EVHLQQSGPELVKPGASVKISCKASGYSFTNYYIQWVKQRPGQGLEWIGWIFPGSGETNYNENFRAKATLSADTSSTTAYMQLSSLTSEDSAVYFCARTWNYDARWGYWGQGTTVTVSS
VL: DILLTQSPASLAVSLGQRATISCRPSENIDSYGISFMHWCQQKPGQPPKLLIYRASNLESGIPVRFSGSGSRTDFTLTINPVEADDVATYYCQQSNEDPFTFGSGTKLEIK
For the molecule B11, the binding result (with ILT2 mutant 2; in assay [1]) was “no binding” throughout.

B12: 2E2B (antibody, human IgG1, V domains shown)
VH: DVQLVESGPELVKPGASVKISCKASGYSFTNYYMQWVKQRPGQGLEWIGWIFPGGGESNYNEKFKGKATLSADTSSTTAYMQLSSLTSEDSAVYFCARTWNYDARWGYWGQGTTVTVSS
VL: DIVLTQSPASLAVSLGQRATISCIPSESIDSYGISFMHWYQQKPGQPPKLLIYRASNLESGIPARFSGSGSRTDFTLTINPVEADDVATYYCQQSNEDPFTFGSGTKLEIK
B12: the binding result (in the assay with ILT2 mutant 2; in assay [1]) was “no binding” each time.

B13: 2A9 (antibody, human IgG1, V domains shown)
VH: EVKLQQSGPELVKPGASVKISCKASGYSFTNYYIHWVKQRPGQGLEWIGWIFPGSGETNYNEKFKVKATLSADTSSTTAYMQLSSLTSEDSAVYFCARTWNYDARWGYWGQGTTLTVSS
VL: DVVVTQTPASLAVSLGQRATISCRASESIDSYGISFMHWYQQKPGQPPKLLIYRASNLESGIPARFSGSGSRTDFTLTINPVEADDVATYYCQQSNEDPFTFGSGTKLEIK
For B13, the binding result (with ILT2 mutant 2; in assay [1]) was “no binding” throughout.

B14: 2C8 (antibody, human IgG1, V domains shown)
VH: EVQLKQSGPELVKPGASVKISCKASGYSFTNYYIQWVKQRPGQGLEWIGWIFPGNGETNYNEKFKGKATLTADTSSSTAYMQLSSLTSEDSAVYFCARTWNYDARWGYWGQGTSVTVSS
VL: DILLTQSPASLTVSLGQRATISCRANESIDSYGISFMHWYQQKPGQPPKLLIYRASNLDSGIPARFSGSGSRTDFTLTINPVEADDVATYYCQQSNEDPFTFGSGTKLEIK
With B14, the binding result (in the assay with ILT2 mutant 2; in assay [1]) was “no binding” in each case.

B15: 5D9 (antibody, human IgG1, V domains shown)
VH: QVQLKESGPELVKPGASVKISCKASGYSFTNYYIHWVKQRPGQGLEWIGWIFLGSGETNYNEKFKGEAILTADTSSTTAYMQLSSLTSEDSAVYFCARSWNYDARWGYWGQGTTLTVSS
VL: EIVLTQSPASLAVSLGQRATISCRASESIDSYGISFIHWYQQKPGQPPKLLIYRASNLESGIPARFSGSGSRTDFTLTINPVEAEDVATYYCQQSNEDPFTFGSGTKLEIK
Turning to B15, the binding result (with ILT2 mutant 2; in assay [1]) was “no binding” in each case.

B16: 3E7A (antibody, human IgG1, V domains shown)
VH: QVQLKQSGPELVKPGASVKISCKASGYSFTNYYIHWVKQRPGQGLEWIGWIFPGSGETNFNEKFKGKATLTADTSSSTAYMQFSSLTSEDSAVYFCARTWNYDARWGYWGQGTTVTVSS
VL: DILMTQSPASLAVSLGQRATISCRASEGIDSYGISFMHWYQQKPGQPPTLLIYRASNLESGIPARFSGSGSRTDFTLTINPVEADDVATYYCQQTNEDPFTFGSGTKLEIK
In the case of B16, the binding result (in the assay with ILT2 mutant 2; in assay [1]) was “no binding” in each case.

B17: 3E7B (antibody, human IgG1, V domains shown)
VH: QVQLKQSGPELVKPGASVKISCKASGYSFTNYYIHWVKQRPGQGLEWIGWIFPGSGETNFNEKFKGKATLTADTSSSTAYMQFSSLTSEDSAVYFCARTWNYDARWGYWGQGTTVTVSS
VL: EIQMTQSPASLAVSLGQRATISCRASEGIDSYGISFMHWYQQKPGQPPTLLIYRASNLVSGIPARFSGSGSRTDFTLTINPVEADDVATYYCQQTNEDPFTFGSGTKLEIK
For B17, the binding result (with ILT2 mutant 2; in assay [1]) was “no binding” each time.

B18: 3E9B (antibody, human IgG1, V domains shown)
VH: EVQLQESGPELVKPGASVKISCKTSGYSFTNYYIHWVKQRPGQGLEWIGWIFPGSGETNYNEKFKGKATLSADTSSTTAYMQLSSLTSEDSAVYFCARTWNYDARWGYWGQGTTVTVSS
VL: EILLTQSPASLAVSLGQRATISCRASETIDSYGISFMHWYQQKPGQPPKLLIYRASNLESGIPARFSGSGSRTDFTLTINPVEADDVATYYCQQSNEDPFTFGSGTKLEIK
Turning to B18, the binding result (in the assay with ILT2 mutant 2; in assay [1]) was “no binding” in each case.
